We go through 2 molecules from PMC5493754, “Myosin 7 and its adaptors link cadherins to actin” (Nature Communications, 2017).

Holding throughout (details): both partners purified
Test [1] concerns the target T1, YFP-Full length (FL)-harmonin (harmonin-a1) (human, UniProt Q9Y6N9-1 1-552).
T1 construct: Harmonin-a1 (USH1C), human, residues 1-552 of UniProt Q9Y6N9-1; also called ^YFPFL (isoA); ^YFPFL; source: E. coli BL21 (DE3) Rosetta, purified (Glutathione Sepharose 4B, size-exclusion chromatography)
T1 sequence (looked up): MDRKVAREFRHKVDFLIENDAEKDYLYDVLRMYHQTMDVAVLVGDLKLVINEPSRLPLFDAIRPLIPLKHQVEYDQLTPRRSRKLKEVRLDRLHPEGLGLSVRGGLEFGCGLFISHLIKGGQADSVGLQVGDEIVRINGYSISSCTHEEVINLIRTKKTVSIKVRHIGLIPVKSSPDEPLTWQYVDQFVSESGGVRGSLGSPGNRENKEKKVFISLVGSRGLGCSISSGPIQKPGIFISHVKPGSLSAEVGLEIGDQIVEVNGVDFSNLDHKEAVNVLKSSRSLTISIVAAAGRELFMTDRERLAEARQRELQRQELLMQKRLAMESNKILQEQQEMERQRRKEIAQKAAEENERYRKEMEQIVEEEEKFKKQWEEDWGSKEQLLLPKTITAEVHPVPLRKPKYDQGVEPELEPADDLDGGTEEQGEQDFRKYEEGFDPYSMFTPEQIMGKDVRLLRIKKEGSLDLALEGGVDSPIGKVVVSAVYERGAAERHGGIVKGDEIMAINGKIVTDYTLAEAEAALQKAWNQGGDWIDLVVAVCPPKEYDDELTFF
Kind of test: MST; as a1 but 150 mM NaCl (for FL-Harmonin-a); YFP-fused partner constant at 100 nM, non-fluorescent protein titrated.

Test [2] deals with T2, ANKS4B_(CEN-PBM) with YFP-harmonin NPDZ1.PDZ2 (human, UniProt Q8N8V4 259-417; Q9Y6N9-1 1-301).
T2 construct: ANKS4B, human, residues 259-417 of UniProt Q8N8V4; as m43; Harmonin-a1 (USH1C), human, residues 1-301 of UniProt Q9Y6N9-1; as m31; also called ANKS4b+^YFPNPDZ1.PDZ2; ^YFPNPDZ1.PDZ2+ANKS4B_(CEN-PBM); source: purified E. coli proteins mixed
T2 sequence (looked up) 1: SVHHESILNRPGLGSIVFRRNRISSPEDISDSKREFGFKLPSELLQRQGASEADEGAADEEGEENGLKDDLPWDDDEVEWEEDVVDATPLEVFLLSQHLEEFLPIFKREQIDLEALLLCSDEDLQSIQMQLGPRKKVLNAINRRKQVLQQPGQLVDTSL
T2 sequence (looked up) 2: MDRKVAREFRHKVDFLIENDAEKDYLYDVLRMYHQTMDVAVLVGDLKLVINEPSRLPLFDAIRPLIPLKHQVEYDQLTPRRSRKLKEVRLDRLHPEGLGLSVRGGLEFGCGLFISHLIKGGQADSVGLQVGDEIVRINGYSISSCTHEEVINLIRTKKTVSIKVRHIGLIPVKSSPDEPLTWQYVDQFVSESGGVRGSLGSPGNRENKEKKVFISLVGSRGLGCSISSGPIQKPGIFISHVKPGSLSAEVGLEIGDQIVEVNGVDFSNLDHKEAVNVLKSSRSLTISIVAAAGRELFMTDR
Kind of test: MST; YFP-fused partner held together with a third protein (saturating concentrations; competition experiments), non-fluorescent protein titrated.

Test [3] concerns the target T3, SANS_(CEN-PBM) with YFP-FL-harmonin-ΔCter ( | human, UniProt Q495M9 300-461; Q9Y6N9-1 1-542).
T3 construct: SANS (USH1G), residues 300-461 of UniProt Q495M9; as m41; Harmonin-a1 (USH1C), human, residues 1-542 of UniProt Q9Y6N9-1; as m28; also called SANS_(CEN-PBM)+^YFPFL ΔCter; source: purified E. coli proteins mixed
T3 sequence (looked up) 1: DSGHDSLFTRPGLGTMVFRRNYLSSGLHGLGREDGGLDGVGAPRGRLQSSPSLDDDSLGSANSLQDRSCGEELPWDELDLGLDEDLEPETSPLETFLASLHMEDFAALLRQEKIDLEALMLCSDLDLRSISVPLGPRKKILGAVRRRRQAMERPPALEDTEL
T3 sequence (looked up) 2: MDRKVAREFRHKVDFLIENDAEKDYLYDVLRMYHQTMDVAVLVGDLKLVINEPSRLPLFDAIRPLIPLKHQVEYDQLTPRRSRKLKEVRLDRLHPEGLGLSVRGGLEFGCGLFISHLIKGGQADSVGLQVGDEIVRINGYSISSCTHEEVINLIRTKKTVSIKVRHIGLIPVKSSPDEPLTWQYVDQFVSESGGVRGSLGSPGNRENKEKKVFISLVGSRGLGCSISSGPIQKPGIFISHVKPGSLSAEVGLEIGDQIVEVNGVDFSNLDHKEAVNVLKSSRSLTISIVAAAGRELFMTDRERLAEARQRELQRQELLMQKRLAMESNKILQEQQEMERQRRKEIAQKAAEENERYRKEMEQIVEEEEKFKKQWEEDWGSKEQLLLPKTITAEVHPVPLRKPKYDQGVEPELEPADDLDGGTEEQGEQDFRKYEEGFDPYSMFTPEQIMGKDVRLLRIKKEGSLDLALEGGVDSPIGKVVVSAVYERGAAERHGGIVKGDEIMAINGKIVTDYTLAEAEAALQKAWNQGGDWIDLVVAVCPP
The test is described as above.

A further test deals with T4, FL-harmonin-ΔCter (human, UniProt Q9Y6N9-1 1-542).
T4 construct: Harmonin-a1 (USH1C), human, residues 1-542 of UniProt Q9Y6N9-1; also called FL ΔCter; source: E. coli BL21 (DE3) Rosetta, purified (Glutathione Sepharose 4B, size-exclusion chromatography)
T4 sequence (looked up): T3 sequence (looked up) 2
Description: MST; as a1 but 150 mM NaCl (for FL-Harmonin-a); YFP-fused partner constant at 100 nM, non-fluorescent protein titrated.

Test [4] deals with T5, Full length (FL)-harmonin (harmonin-a1) (human, UniProt Q9Y6N9-1 1-552).
T5 construct: Harmonin-a1 (USH1C), human, residues 1-552 of UniProt Q9Y6N9-1; also called FL-harmonin-a; source: E. coli BL21 (DE3) Rosetta, purified (Glutathione Sepharose 4B, size-exclusion chromatography)
T5 sequence (looked up): T1 sequence (looked up)
Described as above.

B1: Harmonin-a PDZ3c (non-fluorescent, as used in MST) (domain or fragment, human, UniProt Q9Y6N9-1 428-552, looked up)
chain: QDFRKYEEGFDPYSMFTPEQIMGKDVRLLRIKKEGSLDLALEGGVDSPIGKVVVSAVYERGAAERHGGIVKGDEIMAINGKIVTDYTLAEAEAALQKAWNQGGDWIDLVVAVCPPKEYDDELTFF
notes: Harmonin-a1 (USH1C), human, PDZ3 plus C-terminal peptide, residues 428-552 of UniProt Q9Y6N9-1; The methods say only that samples for ITC or crystallisation were digested with TEV protease; also called PDZ3c (isoA); source: E. coli BL21 (DE3) Rosetta, purified (Glutathione Sepharose 4B, size-exclusion chromatography)
Turning to B1, the results for the Kd in test [1], in test [2] and in test [3] were 1.4 µM, greater than 100 µM and greater than 100 µM, respectively.

B2: YFP-Harmonin-a PDZ3c (domain or fragment, human, UniProt Q9Y6N9-1 428-552, looked up)
chain: B1 chain
notes: Harmonin-a1 (USH1C), human, residues 428-552 of UniProt Q9Y6N9-1; also called ^YFPPDZ3c (isoA); source: E. coli BL21 (DE3) Rosetta, purified (Glutathione Sepharose 4B, size-exclusion chromatography)
Regarding B2, the Kd with FL-harmonin-ΔCter is 2.3 µM; in test [4], 1.9 µM.

For orientation: Kd means the equilibrium constant for the complex coming apart. A lower Kd goes with higher affinity.
